From US20240287172A1 (SCIRHOM, published 2024)
Substitutions are numbered along the chain they refer to.

T1: hiR2-FL-D535-T7 (deletion of D535) (human, UniProt Q6PJF5 1-856)
T1 construct: single amino acid deletion
T1 sequence: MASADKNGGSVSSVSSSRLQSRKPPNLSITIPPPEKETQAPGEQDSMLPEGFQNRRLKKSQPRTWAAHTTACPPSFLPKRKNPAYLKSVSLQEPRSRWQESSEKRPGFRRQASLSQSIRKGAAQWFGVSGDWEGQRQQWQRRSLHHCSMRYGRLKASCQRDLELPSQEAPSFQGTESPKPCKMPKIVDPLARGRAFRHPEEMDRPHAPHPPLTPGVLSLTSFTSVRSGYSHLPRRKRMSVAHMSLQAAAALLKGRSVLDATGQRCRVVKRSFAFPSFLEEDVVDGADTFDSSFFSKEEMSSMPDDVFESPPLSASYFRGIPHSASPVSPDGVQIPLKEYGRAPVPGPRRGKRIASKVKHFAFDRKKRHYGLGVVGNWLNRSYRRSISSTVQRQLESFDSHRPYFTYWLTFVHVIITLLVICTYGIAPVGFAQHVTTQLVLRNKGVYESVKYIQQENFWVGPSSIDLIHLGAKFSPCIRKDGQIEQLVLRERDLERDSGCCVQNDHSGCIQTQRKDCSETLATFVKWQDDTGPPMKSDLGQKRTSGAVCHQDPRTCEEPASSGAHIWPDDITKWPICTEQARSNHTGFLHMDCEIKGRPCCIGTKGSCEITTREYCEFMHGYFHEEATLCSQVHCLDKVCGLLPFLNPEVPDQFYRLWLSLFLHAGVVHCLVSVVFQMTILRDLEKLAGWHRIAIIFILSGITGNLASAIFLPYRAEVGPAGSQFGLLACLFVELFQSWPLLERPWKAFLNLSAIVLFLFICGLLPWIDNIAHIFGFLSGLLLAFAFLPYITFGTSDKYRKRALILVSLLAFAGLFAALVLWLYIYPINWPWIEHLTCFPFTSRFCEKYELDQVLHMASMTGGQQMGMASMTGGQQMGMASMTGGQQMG

B1: antibody 16 (antibody, V domains shown)
VH: QVTLKESGPGILQPSQTLSLTCSFSGFSLSTFALGVGWIRQPSGRGLEWLAHIWWDDDKYYNPALKSRLTISKDTSKNHVFLKIANVDTADTATYYCARITTYYYGMDYWGQGTSVTVSS
VL: DIVLSQSPATLSVTPGDSVSLFCRASQSIGNHLHWYQQESHASPRLLIKYASQSISGIPSRFSGSGSGTDFTLSINSVETEDFGMYFCQQSYNWPLTFGAGTKLELK
notes: mouse IgG, kappa light chain; also called clone #16; purified antibody 16
B2: antibody 3 (antibody, V domains shown)
VH: QVTLKESGPGILQPSQTLSLTCSFSGFSLTTFAMGIGWVRQPSGKGLEWLAHIWWDGEKYNNPVLKSRLTISKDTSKNQVFLRIANVDTPDTATYYCARISSIYYIIDNWGQGTSVTVSS
VL: B1 VL with S5T, D17H, F22S, G30S, H32N, Q38K, E39K, A42E, A51V
notes: mouse IgG, kappa light chain; also called clone #3; purified antibody 3
B3: antibody 5 (antibody, V domains shown)
VH: QVTLKESGPGILQPSQTLSLTCSFSGFSLSTFGMGVGWIRQPSGKGLEWLAHIWWDDEKYYNSALKSRLTISKATSKNQAFLKIANVDTADTATYYCARISNYGSNYWYFNVWGTGTTVTVSS
VL: QVVLTQSPALMSASPGEKVTMTCSAGSSVSCMYWYQQKPGSSPRVLIYDTSNLASGVPARFTGSGSGTSYSLTISRMEAEDAASYYCQQWNSYPLTFGAGTKLELK
notes: mouse IgG, kappa light chain; also called clone #5; purified antibody 5
B4: antibody 43 (antibody, V domains shown)
VH: B3 VH with T3A, P42S, H52N, E58D, S63P, A74D, T75A, S101G, N111D
VL: QIVLTQSPAIMSASPGERVTMTCSANSRISYMYWYQQKPGSSPRLLIYDTSNLASGVPVRFSGSGSGTSYSLTISRMEAEDAATYNCQQWSSYPLTFGAGTKLELK
notes: mouse IgG, kappa light chain; also called clone #43; purified antibody 43
B5: antibody 42 (antibody, V domains shown)
VH: B3 VH with F24L, M34R, S63P, A74D, A80V, K83R, S101Q, N111D
VL: B4 VL with Q1L, R18K, S24G, N26T, Y33F, L45V, M77V, A82V, N86Y, S91N
notes: mouse IgG, kappa light chain; also called clone #42; purified antibody 42
B6: antibody 44 (antibody, V domains shown)
VH: B3 VH with G44E, E58D, S63P, A74D, A80I, A85T, D91E, A98S, S101G, N111D
VL: QIVLTQSPAVMSASPGEKVTMTCTASSSVYYMYWYQQTPGSSPRLLIYDTSNLASGVPVRFSGSGSGTSYSLTISRMEAEDAATYYCQQWNTYPLTFGAGTKLELK
notes: mouse IgG, kappa light chain; also called clone #44; purified antibody 44
B7: antibody 22 (antibody, V domains shown)
VH: B3 VH with A80V
VL: B3 VL with C31Y, S84T
notes: mouse IgG, kappa light chain; also called clone #22; purified antibody 22
B8: antibody 34 (antibody, V domains shown)
VH: QVTLKESGPGILQPSQTLSLTCSFSGFSLSTFSLGVGWIRQSSGKGLEWLAHIWWDDEKYYNPALKSRLTISKDTSKNQVFLKIANVDAADTATYYCARAYYSKSYYALDYWGQGTSVTVSS
VL: DIQMTQSPSSLSASLGERVSLTCRASQEISGYLSWLQQKPDGTIKRLIYAASTLDSGVPKRFSGSRSGSDYSLAISSLESEDFADYYCLQYANFPFTFGSGTKLEIK
notes: mouse IgG, kappa light chain; also called clone #34; purified antibody 34

Molecular target: T1, hiR2-FL-D535-T7 (deletion of D535)
Assay: FACS, MEF-DKO cells, 3 µg/ml

Row | Binder | loss of binding vs wild type [%]
1 | B1 | ≥ 95
2 | B2 | ≥ 95
3 | B3 | ≥ 95
4 | B4 | ≥ 95
5 | B5 | ≥ 95
6 | B6 | ≥ 95
7 | B7 | ≥ 95
8 | B8 | ≥ 95
